Experimental findings from publication PMC9772228, “Structure of a RecT/Redβ family recombinase in complex with a duplex intermediate of DNA annealing” are described below.

Common to all, as to assay: EMSA; EMSA: PBS pH 7.4 (or KH2PO4/10 mM MgCl2 pH 6.0), 3.6 or 5 uM protein, 25 uM nt DNA, 37 C 15 min per strand, 0.8% agarose 1x TBE; cryo-EM: 20 mM KH2PO4 (Results: 10 mM), 10 mM MgCl2 pH 6.0, 37 C; native MS: 100 mM ammonium acetate pH 7, 37 C
Common to all, as to settings: protein: recombinant, tags: N-terminal 6His vector tag (20 aa) retained, chain copies: 10
In general terms: Mobility shift assays separate free from complexed probe on a gel.

One series deals with T1, LiRecT Q107A (Listeria innocua CLIP 11262, UniProt Q92FL9 1-271, Q107A).
T1 sequence: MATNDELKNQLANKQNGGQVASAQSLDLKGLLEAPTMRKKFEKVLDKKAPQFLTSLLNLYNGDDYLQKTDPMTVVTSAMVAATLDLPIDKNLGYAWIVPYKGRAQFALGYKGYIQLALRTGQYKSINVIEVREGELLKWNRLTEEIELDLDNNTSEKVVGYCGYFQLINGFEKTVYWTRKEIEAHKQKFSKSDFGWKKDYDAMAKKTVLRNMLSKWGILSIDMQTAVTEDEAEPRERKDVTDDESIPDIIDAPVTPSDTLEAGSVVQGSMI

The target in a further series is T2, LiRecT Y100E (Listeria innocua CLIP 11262, UniProt Q92FL9 1-271, Y100E).
T2 sequence: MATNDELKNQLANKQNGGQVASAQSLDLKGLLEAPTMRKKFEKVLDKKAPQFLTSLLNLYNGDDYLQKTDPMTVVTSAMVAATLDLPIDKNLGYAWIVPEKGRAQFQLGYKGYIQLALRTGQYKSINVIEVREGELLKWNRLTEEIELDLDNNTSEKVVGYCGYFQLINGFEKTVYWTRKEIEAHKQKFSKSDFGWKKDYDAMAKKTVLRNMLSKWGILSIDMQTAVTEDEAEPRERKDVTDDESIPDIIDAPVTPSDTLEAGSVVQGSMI

A further series deals with T3, LiRecT V98A/Y100A (Listeria innocua CLIP 11262, UniProt Q92FL9 1-271, V98A;Y100A).
T3 sequence: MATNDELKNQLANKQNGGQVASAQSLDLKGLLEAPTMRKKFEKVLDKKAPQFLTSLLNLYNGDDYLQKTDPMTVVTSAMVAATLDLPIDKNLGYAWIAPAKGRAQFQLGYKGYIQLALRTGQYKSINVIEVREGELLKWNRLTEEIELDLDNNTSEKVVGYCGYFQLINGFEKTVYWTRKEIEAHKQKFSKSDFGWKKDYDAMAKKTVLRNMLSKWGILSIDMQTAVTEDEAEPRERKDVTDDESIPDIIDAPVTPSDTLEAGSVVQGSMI

The target in a further series is T4, LiRecT V98A/Y100A/Q107A (Listeria innocua CLIP 11262, UniProt Q92FL9 1-271, V98A;Y100A;Q107A).
T4 sequence: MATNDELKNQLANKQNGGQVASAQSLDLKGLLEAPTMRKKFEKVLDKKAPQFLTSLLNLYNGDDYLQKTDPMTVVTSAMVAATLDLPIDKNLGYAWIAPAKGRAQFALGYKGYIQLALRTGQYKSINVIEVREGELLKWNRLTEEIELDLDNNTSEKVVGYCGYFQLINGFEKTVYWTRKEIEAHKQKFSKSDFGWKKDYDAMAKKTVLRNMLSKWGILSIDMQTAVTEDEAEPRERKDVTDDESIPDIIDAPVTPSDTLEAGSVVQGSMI

In the next series the target is T5, LiRecT K215A/W216A (Listeria innocua CLIP 11262, UniProt Q92FL9 1-271, K215A;W216A).
T5 sequence: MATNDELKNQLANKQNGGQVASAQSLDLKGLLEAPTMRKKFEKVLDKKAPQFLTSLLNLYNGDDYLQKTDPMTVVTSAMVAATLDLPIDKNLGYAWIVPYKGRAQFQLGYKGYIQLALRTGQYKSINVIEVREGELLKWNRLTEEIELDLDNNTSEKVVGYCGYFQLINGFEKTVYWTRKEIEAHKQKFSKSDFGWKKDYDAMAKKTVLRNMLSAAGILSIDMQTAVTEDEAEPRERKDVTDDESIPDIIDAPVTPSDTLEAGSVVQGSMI

Where [1] appears, read: label: 5'-Cy3;5'-Cy5, 49 bp, 1 nt 5' overhang at each end.

B1: Cy3-50mer (ssDNA)
DNA: GCGGATGGCTTAGAGCAGAATCGCCCTGCATAGCTCGATTTTTGCGGATG
Turning to B1, the binding result with LiRecT Q107A (label: 5'-Cy3, single strand) is “binds”; with LiRecT Y100E (label: 5'-Cy3, single strand), “binds”; in the series with LiRecT V98A/Y100A (label: 5'-Cy3, single strand), “binds”; in the series with LiRecT V98A/Y100A/Q107A (label: 5'-Cy3, single strand), “binds”; with LiRecT K215A/W216A (label: 5'-Cy3, single strand) it was “no binding”.

B2: Cy5-50mer (ssDNA)
DNA: CCATCCGCAAAAATCGAGCTATGCAGGGCGATTCTGCTCTAAGCCATCCG
Turning to B2, the binding result in the series with LiRecT Q107A (label: 5'-Cy5, single strand) was “binds”; with LiRecT Y100E (label: 5'-Cy5, single strand), “binds”; in the series with LiRecT V98A/Y100A (label: 5'-Cy5, single strand), “binds”; with LiRecT V98A/Y100A/Q107A (label: 5'-Cy5, single strand) it was “binds”; with LiRecT K215A/W216A (label: 5'-Cy5, single strand), “no binding”.

B3: 50-mer duplex intermediate (sequential addition) (dsDNA)
DNA 1: GCGGATGGCTTAGAGCAGAATCGCCCTGCATAGCTCGATTTTTGCGGATG
DNA 2: CCATCCGCAAAAATCGAGCTATGCAGGGCGATTCTGCTCTAAGCCATCCG
On to B3, for which the binding result is given as “binds” with LiRecT Q107A (setting [1]); “binds” with LiRecT Y100E (setting [1]); “binds” with LiRecT V98A/Y100A (setting [1]); “binds” with LiRecT V98A/Y100A/Q107A (setting [1]); “no binding” with LiRecT K215A/W216A (setting [1]).
